Test [1] concerns the target T1, cell surface nucleolin on intact tumor cells (MDA-MB-435, HL-60) (human, UniProt P19338 2-710).
T1 construct: Native nucleolin on human tumor cell lines; also called cell surface-expressed nucleolin
The test is described as follows: phage binding to tumor cells, pfu count; the filing names nucleolin as the receptor only later. An excerpt:
Phage displaying a set of sequences corresponding to fragments of the amino-terminal portion of HMGN2 (SEQ ID NO: 5) were constructed to localize the region responsible for cell binding and in vivo homing. Fragments were designed to follow the exon/intron boundaries of the HMGN2 gene. Inserts encoding the indicated fragments were amplified from the full length HMGN2 phage clone by PCR, purified, digested and directionally cloned into the T7 415-1 and 10-3 vectors. Phage were packaged, amplified and sequenced according to the manufacturer's instructions. Phage preparations were then tested for binding to primary cells obtained from HL-60 xenograft tumors. After a 1 hour incubation at 4° C., cells were washed, and bound phage quantified. […] Furthermore, phage displaying the N-terminal portion of the active fragment SEQ ID NO: 9, which corresponds to exon 3 of the HMGN2 gene, were prepared. These phage expressing the sequence […] (SEQ ID NO: 11) bound to tumor cells 90-fold more than non-recombinant phage.
The phage binding assay was performed essentially as follows. Attachment of phage to cells was quantified by incubating 1×10⁸ pfu of phage displaying SEQ ID NO: 9 for 60 minutes with 1×10⁶ HL-60 cells at 4° C. in Tris-buffered saline with 1 mM Ca⁺² and 1 mM MgCl₂. […] Bound phage were quantified by plating and counting pfu.

Test [2] addresses T2, nucleolin (110-kDa protein of MDA-MB-435 cells, in cell extracts and inside cells) (human, UniProt P19338 2-710).
T2 construct: also called 110 kDa band; full-length nucleolin
The test is described as follows: affinity chromatography of MDA-MB-435 cell extract on peptide matrix, SDS gel, mass spectrometry. The procedure: 276:48588-48595 (2001). Briefly, 6×10⁸ MDA-MB-435 cells grown in RPMI 1640 medium with 10% fetal calf serum were pelleted and lysed in 60 ml of RIPA buffer (1% Triton X-100, 0.5% deoxycholic acid, 0.1% SDS, 10 mM Tris-HCl pH 7.6, 150 mM NaCl, and 1% Protease Inhibitor Cocktail for Mammalian Cells; SIGMA). […] Matrix beads were washed three times with IP-wash buffer (0.025% Triton X-100, 50 mM Tris-HCl pH 8.4, 150 mM NaCl, 1 mM CaCl₂, and 0.02% azide), two times with 25 mM Tris-HCl pH 8.4/250 mM NaCl, and eluted with 30 μl of SDS gel sample buffer. Affinity-purified proteins were reduced with 50 mM DTT before being separated on an 8-20% polyacrylamide gel and visualized by Colloidal Blue staining (Invitrogen; Carlsbad, Calif.). Bands that appeared in the peptide SEQ ID NO: 9 eluate, but not in control eluate, were cut out, digested with trypsin and analyzed by mass spectroscopy using matrix-assisted laser desorption ionization-time of flight analysis (Voyager DE-PRO, Applied Biosystems; Foster City, Calif.). Peptide samples were prepared using an alpha-cyano-4-hydroxycinnamic acid (HCCA)/nitrocellulose matrix.

T1 sequence (P19338 other isoform, or with tags, fused parts or gaps limits assumed): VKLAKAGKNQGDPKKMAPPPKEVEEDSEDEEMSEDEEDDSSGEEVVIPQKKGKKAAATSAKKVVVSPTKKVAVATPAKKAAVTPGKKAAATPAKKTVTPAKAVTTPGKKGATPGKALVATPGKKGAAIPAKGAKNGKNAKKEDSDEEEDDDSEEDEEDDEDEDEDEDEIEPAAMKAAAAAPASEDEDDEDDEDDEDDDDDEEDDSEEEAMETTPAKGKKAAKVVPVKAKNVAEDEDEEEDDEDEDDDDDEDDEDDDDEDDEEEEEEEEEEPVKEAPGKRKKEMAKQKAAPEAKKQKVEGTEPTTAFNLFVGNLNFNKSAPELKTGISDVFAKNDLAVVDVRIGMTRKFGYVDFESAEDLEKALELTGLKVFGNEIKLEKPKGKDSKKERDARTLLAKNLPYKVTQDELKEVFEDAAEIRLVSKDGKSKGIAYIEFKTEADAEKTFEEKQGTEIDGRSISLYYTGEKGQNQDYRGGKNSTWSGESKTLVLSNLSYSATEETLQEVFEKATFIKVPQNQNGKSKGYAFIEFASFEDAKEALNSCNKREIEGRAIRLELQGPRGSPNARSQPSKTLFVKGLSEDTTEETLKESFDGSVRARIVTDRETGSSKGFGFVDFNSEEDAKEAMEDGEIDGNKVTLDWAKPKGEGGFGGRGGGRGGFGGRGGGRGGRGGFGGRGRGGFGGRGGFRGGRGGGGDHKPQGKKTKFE
T2 sequence (P19338 other isoform, or with tags, fused parts or gaps limits assumed): as above

B1: phage expressing the HMGN2 exon 3 sequence PQRRSARLSA (SEQ ID NO: 11) (other)
chain: PQRRSARLSA
notes: not shown: T7 phage coat protein fusion partner
For B1, the “fold binding over non-recombinant phage” value in test [1] is 90 fold.
For APKDKPAAVKERKKPAPKPRPQELRSKKAKPAPAS (also called control matrix) [control peptide APKDKPAAVKERKKPAPKPRPQELRSKKAKPAPAS (SEQ ID NO:20)], the binding result in test [2] is reported as “no binding”.
